Positions count from the first letter of the chain named.
Columns and labels:
CCK-BR [1] = target: T1, CCK-BR (Homo sapiens, UniProt P32239, L325E); set-up: expressed in transfected cells; host or cells: COS-7; conditions: COS-7, absence of agonist; cited from earlier work
T1 sequence (P32239 1-447 L325E): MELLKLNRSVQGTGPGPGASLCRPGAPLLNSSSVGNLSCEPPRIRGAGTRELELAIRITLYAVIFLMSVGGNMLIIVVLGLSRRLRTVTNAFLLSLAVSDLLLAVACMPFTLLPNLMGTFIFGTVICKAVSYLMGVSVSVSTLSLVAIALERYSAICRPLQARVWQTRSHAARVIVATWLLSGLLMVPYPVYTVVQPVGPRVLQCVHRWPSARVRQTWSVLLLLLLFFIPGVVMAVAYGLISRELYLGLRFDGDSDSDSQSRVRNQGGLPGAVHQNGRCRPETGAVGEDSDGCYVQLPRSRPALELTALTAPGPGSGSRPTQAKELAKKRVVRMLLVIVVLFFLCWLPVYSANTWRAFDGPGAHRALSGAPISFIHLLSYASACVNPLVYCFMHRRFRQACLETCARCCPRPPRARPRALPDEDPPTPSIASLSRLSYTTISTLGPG

CCK-BR [2] = target: T1, CCK-BR; test: SMS-Luc luciferase reporter assay in HEK293 cells; type: cell-based; set-up: expressed in transfected cells; host or cells: HEK293; conditions: FIG. 2
Text: HEK293 cells were transfected (as described above) with SMS-Luc and an expression vector encoding any one of pcDNA1, wild-type CCK-BR, or Leu325Glu CCK-BR.

rat mu opioid receptor [3] = target: T2, rat mu opioid receptor (Rattus norvegicus, UniProt P33535, N150A); test: CRE-Luc luciferase reporter assay with forskolin stimulation; type: cell-based; conditions: 0.5 μM forskolin; a decrease means more Gαi signaling
T2 construct: expressed in transfected cells; host or cells: HEK293
Text: Similarly, a constitutively active rat mu opioid receptor was identified using a reporter construct sensitive to Gαi coupling (see FIG. 3). The response element employed in this assay was the cAMP-response element (CRE), which is sensitive to Gαi mediated changes in intracellular levels of cAMP. Signaling through the rat mu opioid receptor via Gαi inhibits adenylate cyclase, causing a decrease in intracellular cAMP. Therefore, an increase in rat mu opioid receptor signaling induces a decrease in CRE mediated reporter activity.
Prior to the present invention, Gαi-mediated decreases in intracellular cAMP were measured by (1) stimulating cells with forskolin, which causes receptor-independent activation of adenylate cyclase and generates an intracellular pool of cAMP; (2) stimulating the cells with ligand; and (3) measuring the ligand-induced, receptor-dependent Gαi-mediated decrease in the intracellular cAMP pool (e.g., using a radioimmunoassay (e.g., New England Nuclear, Boston, Mass.)). […] The basal (and ligand-induced) level of receptor activity was then measured using a standard luciferase assay (see FIG. 3). Coexpression of the receptor of interest with a luciferase reporter gene construct allows one to measure light emission as a readout for basal signaling.

rat mu opioid receptor [4] = target: T2, rat mu opioid receptor; test: SRE-Luc/Gq5i luciferase reporter assay in HEK293 cells; type: cell-based
Method: (§1) Reagents & Solutions: The cell culture media used in the assays described below was Gibco BRL #12100-046. This media was made according to manufacturer's recipe, pH adjusted to 7.2, filtered (0.22 micron pore), and supplemented with 1% Pen/Strep (Gibco #15140-122; 100% penicillin G 10,000 units/ml, and streptomycin 10,000 μg/ml) and 10% fetal bovine serum. Cell culture media lacking 10% fetal bovine serum was also generated. DNA used in the transfection experiments was purified and quantitated by measuring the absorbance at OD260. A LucLite Luciferase Assay Kit (Packard) was used to quantitate luciferase activity. Transfections were carried out using LipofectAMINE Reagent (Gibco #18324-012).
(§2) Constitutive activity of the Asn150Ala mutant rat mu opioid receptor was assessed using a luciferase assay. The rat mu opioid receptor is a Gαi coupled receptor. Therefore we chose to use the Gq5i reporter system, described in detail above (Broach and Thorner, supra), which switches the signaling pathway from Gαi to Gαq for reliable positive readout. HEK293 cells were transfected with the reporter construct SRE-Luc, an expression vector containing nucleic acid encoding Gq5i (Broach and Thorner, supra), and an expression vector containing nucleic acid encoding either the wild-type or the Asn150Ala mutant rat mu opioid receptor. Basal and ligand-stimulated luciferase activity was measured. The ligand used in this assay was [D-Ala^2-MePhe^4, Gly-ol^5]enkephalin] (DAMGO). As a negative control, HEK293 cells were transfected with pcDNA1 (empty vector DNA), SRE-Luc, and the expression vector containing nucleic acid encoding Gq5i (Broach and Thorner, supra).
(§3) The luciferase assay was carried out as follows. On day 1, HEK293 cells in a T75 flask were washed with 15 ml serum-free media (or PBS), trypsinized with 5 ml 0.05% trypsin-EDTA (Gibco #25300-062), incubated at 37° C. for 3 minutes at which time 6-7 ml complete HEK293 media (Gibco #12100-046) and 10% Fetal Bovine Serum (Intergen #1050-90) were added. Thereafter, cells were collected in 50 ml centrifuge tubes, pelleted at 800-900 rpm (RCF ˜275), and resuspend in 20 ml complete media. The cells were counted using a haemocytometer and diluted to 85,000 cells/ml in complete media. Using a repeat pipettor or cell plater, 100 μl of cells were added to each well of a Primaria 96-well plate (Falcon #353872). Cells were then incubated at 37° C., 5% CO2 until use at 48 hours.
(§4) On day 3, cells were transfected using LipofectAMINE™ according to the manufacturer's protocol (Gibco #18324-012, Rockville, Md.).
(§5) On day 4, cells were stimulated as follows. Ligands for the receptor, either DAMGO or a non-peptide ligand (e.g., naltrexene or nalonin), were diluted to a desired concentration in serum-free media containing 0.15 mM PMSF (or other protease inhibitor(s)). The transfection media was then completely removed from cells and 50-100 μl stimulation media (i.e., media containing candidate ligands or the corresponding ligand free solvent) was added to each well. The cells were incubated for the desired time (standard is overnight) at 37° C., 5% CO2, although the optimal stimulation time may vary depending on the particular receptor used. The optimal incubation time may be determined systematically by testing a range of incubation times and determining which one yields the highest level of stimulation. For concomitant assessment of two ligands (e.g., ligand induced inhibition of forskolin stimulated CRE activity) each stimulus is prepared at two times the desired final concentration and mixed in equal volumes prior to addition to cells.
(§6) On day 5, an assay for luciferase expression was carried out according to the manufacturer's instructions (Packard, Meridin, Conn.)

rat mu opioid receptor [5] = test: as above; type: cell-based; conditions: HEK293, SRE + Gq5i; for Average Ligand Stimulated Activity (Light Emission): ligand DAMGO; for Average Basal Activity (Light Emission): no ligand
Method: as §1, §2, §3, §4, §5, §6

B1: Leu325Glu CCK-BR mutant: human CCK-BR with point mutation Leu325Glu, constitutively active (protein, UniProt P32239 1-447, looked up, variant L325E)
Gastrin/cholecystokinin type …: T1 sequence (P32239 1-447 L325E)
CCK-BR [1]
  constitutive production of inositol phosphates: levels exceeding wild-type CCK-BR
CCK-BR [2]
  basal level activity compared to wild-type CCK-BR: increased basal level activity

B2: Asn150Ala rat mu opioid receptor: rat mu opioid receptor with Asn to Ala point mutation at position 150 of SEQ ID NO: 1 (protein, UniProt P33535 1-398, looked up, variant N150A)
Mu-type opioid receptor: MDSSTGPGNTSDCSDPLAQASCSPAPGSWLNLSHVDGNQSDPCGLNRTGLGGNDSLCPQTGSPSMVTAITIMALYSIVCVVGLFGNFLVMYVIVRYTKMKTATNIYIFNLALADALATSTLPFQSVNYLMGTWPFGTILCKIVISIDYYAMFTSIFTLCTMSVDRYIAVCHPVKALDFRTPRNAKIVNVCNWILSSAIGLPVMFMATTKYRQGSIDCTLTFSHPTWYWENLLKICVFIFAFIMPVLIITVCYGLMILRLKSVRMLSGSKEKDRNLRRITRMVLVVVAVFIVCWTPIHIYVIIKALITIPETTFQTVSWHFCIALGYTNSCLNPVLYAFLDENFKRCFREFCIPTSSTIEQQNSTRVRQNTREHPSTANTVDRTNHQLENLEAETAPLP
Rat mu opioid receptor [3]
  basal CRE-Luc reporter activity compared to wild-type receptor: reduction in basal activity
Rat mu opioid receptor [4]
  basal activity relative to the maximal level of ligand-stimulated second messenger signaling: exceeded 50%
Rat mu opioid receptor [4]; HEK293, SRE + Gq5i, listed as Asn150Ala mutant mu opioid receptor
  stimulation of basal level activity (increase in basal activity vs wild-type): approximately 6.5 fold
Rat mu opioid receptor [5]
  Average Ligand Stimulated Activity (Light Emission): 86,996
  Average Basal Activity (Light Emission): *56,498

B3: wild-type rat mu opioid receptor: wild-type rat mu opioid receptor expressed from an expression vector in HEK293 cells (protein, UniProt P33535 1-398, looked up)
Mu-type opioid receptor: B2 Mu-type opioid receptor with A150N
Rat mu opioid receptor [5]
  Average Ligand Stimulated Activity (Light Emission): 87,461
  Average Basal Activity (Light Emission): 8,436
